Experimental data reported in article PMC12302927, “Lactate-functionalized 3D-printed PCL/nHA scaffold drives BMSC osteogenesis via metabolic-epigenetic crosstalk” (Materials Today Bio, 2025).

What was measured:
[1] = target: T1, wild-type STAT1, overexpressed (pLVX-STAT1-WT), lactylated in BMSCs on the PCL/nHA/SL scaffold (UniProt P42224 1-750, lysine lactylation, elevated 2.4-fold on the scaffold (Klac 0.797 ± 0.105); K193 named as the key lactylation site); experiment: cell-based or functional assay
T1 sequence (looked up): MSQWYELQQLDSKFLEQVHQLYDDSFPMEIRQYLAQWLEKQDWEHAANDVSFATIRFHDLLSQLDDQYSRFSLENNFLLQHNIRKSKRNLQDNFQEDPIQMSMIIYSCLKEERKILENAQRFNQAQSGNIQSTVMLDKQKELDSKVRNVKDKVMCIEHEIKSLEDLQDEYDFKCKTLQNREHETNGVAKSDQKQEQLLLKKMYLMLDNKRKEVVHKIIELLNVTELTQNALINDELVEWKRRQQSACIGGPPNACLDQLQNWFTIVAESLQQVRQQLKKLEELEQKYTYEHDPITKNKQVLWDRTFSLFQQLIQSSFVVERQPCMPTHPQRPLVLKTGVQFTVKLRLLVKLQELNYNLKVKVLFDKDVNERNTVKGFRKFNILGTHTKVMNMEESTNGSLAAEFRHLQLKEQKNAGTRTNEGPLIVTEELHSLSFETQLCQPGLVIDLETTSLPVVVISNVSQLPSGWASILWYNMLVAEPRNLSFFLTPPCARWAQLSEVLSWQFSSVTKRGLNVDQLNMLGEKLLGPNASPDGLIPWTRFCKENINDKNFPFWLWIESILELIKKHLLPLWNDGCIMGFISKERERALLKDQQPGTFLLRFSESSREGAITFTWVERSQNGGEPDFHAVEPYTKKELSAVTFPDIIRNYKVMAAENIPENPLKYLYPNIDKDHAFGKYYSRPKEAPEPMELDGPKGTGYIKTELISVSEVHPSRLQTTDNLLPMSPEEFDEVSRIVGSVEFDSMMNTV

[2] = target: T2, STAT1, endogenous in BMSCs (human (endogenous in BMSCs), UniProt P42224 1-750); experiment: co-IP; BMSC lysates, no osteogenic induction, 48h post-transfection; STAT1 antibody for pull-down with IgG control, Protein A/G agarose; blots probed for lactylation and Runx2; cells scaffold-free or on PCL/nHA/SL scaffold; band intensities quantified; details: partners not purified
T2 construct: STAT1, endogenous in human bone marrow mesenchymal stem cells (ATCC PCS-500-012); STAT1 precipitated with anti-STAT1 antibody from scaffold-free Runx2-OE cells, which carry no STAT1 construct; source: endogenous, human BMSC lysate
T2 sequence (looked up): T1 sequence (looked up)

[3] = target: T3, wild-type STAT1, overexpressed (pLVX-STAT1-WT), scaffold-free BMSCs (UniProt P42224 1-750); experiment: as above; details: partners not purified
T3 construct: STAT1, wild type; No tag is stated for this experiment (the rescue lentivirus of another experiment is HA-tagged); The anti-STAT1 antibody precipitates the endogenous STAT1 as well; Lactylation was low in these cells (0.327 ± 0.046); also called STAT1-OE; source: human BMSCs, lentiviral transduction (pLVX-STAT1-WT), scaffold-free, in lysate
T3 sequence (looked up): T1 sequence (looked up)

[4] = target: T1, wild-type STAT1, overexpressed …; experiment: as above; details: partners not purified

B1: Runx2, overexpressed (pLVX-Runx2) (natural protein, UniProt Q13950 1-521, looked up)
chain: MASNSLFSTVTPCQQNFFWDPSTSRRFSPPSSSLQPGKMSDVSPVVAAQQQQQQQQQQQQQQQQQQQQQQQEAAAAAAAAAAAAAAAAAVPRLRPPHDNRTMVEIIADHPAELVRTDSPNFLCSVLPSHWRCNKTLPVAFKVVALGEVPDGTVVTVMAGNDENYSAELRNASAVMKNQVARFNDLRFVGRSGRGKSFTLTITVFTNPPQVATYHRAIKVTVDGPREPRRHRQKLDDSKPSLFSDRLSDLGRIPHPSMRVGVPPQNPRPSLNSAPSPFNPQGQSQITDPRQAQSSPPWSYDQSYPSYLSQMTSPSIHSTTPLSSTRGTGLPAITDVPRRISDDDTATSDFCLWPSTLSKKSQAGASELGPFSDPRQFPSISSLTESRFSNPRMHYPATFTYTPPVTSGMSLGMSATTHYHTYLPPPYPGSSQSQSGPFQTSSTPYLYYGTSSGSYQFPMVPGGDRSPSRMLPPCTTTSNGSTLLNPNLPNQNDGVDADGSHSSSPTVLNSSGRMDESVWRPY
notes: Runx2; The anti-Runx2 blot also sees the endogenous Runx2 of the BMSCs; also called Runx2-OE; source: human BMSCs, lentiviral transduction (pLVX-Runx2), in lysate
Osteocalcin protein (Western blot) in Runx2-OE + STAT1-OE BMSCs on the PCL/nHA/SL scaffold, rescued to STAT1-KD-like levels [1]: 0.474
relative co-IP band intensity [2]: 0.582
relative co-IP band intensity [3]: 0.845
relative co-IP band intensity [4]: 0.286
